Experimental findings from PMC6224377 (2018) are described below.

The target of this experiment is hROR2-ECD-Twin-Strep (soluble human ROR2 extracellular domain fused to a Twin-Strep-tag) (human, UniProt Q01974 34-403). The experiment is described as follows: SPR. In general terms: In SPR one partner is held on a chip, and binding of the other changes the refractive index at the surface.
Sequence of hROR2-ECD-Twin-Strep (soluble human ROR2 extracellular domain fused to a Twin-Strep-tag) (Q01974 34-403): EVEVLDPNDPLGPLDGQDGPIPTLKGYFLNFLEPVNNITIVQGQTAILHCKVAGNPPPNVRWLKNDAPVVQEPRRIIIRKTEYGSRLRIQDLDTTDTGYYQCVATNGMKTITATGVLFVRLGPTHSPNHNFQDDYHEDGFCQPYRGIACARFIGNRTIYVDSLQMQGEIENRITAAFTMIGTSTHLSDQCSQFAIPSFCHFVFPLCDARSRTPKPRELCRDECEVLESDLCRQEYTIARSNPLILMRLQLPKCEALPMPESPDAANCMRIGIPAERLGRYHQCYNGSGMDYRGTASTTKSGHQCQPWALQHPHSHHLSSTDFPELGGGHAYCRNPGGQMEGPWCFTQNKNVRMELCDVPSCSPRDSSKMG

B1: GK-5E1 (antibody, V domains shown)
VH: QVTLKESGGDVVQPGRSLRLSCAASGFTFRTYGMHWVRQAPGKGPEWVALIWYDGSKKYYADSVKGRFTISRDNSKNTLYLQMNSLRAEDTAVYYCVRVRFGELYFQHWGQGTLVTVSS
VL: not shown
One may read the Kd as the free concentration of one partner at which half of the binding sites on the other are occupied at equilibrium, for simple one-to-one binding. Read a low Kd as higher affinity. In the case of B1, the Kd worked out at 2.5 nM.

B2: GK-1E5 (antibody, V domains shown)
VH: EVQLVESGGGVVQPGRSLRLSCAASGFTFRSYGMHWVRQAPGKGLEWVAIIWYDGSKKYYTDSVQGRFTISRDNSKNTLYLQMNSLRAEDTAVYYCARPGIAMTGLDYWGQGTLVTVSS
VL: DIQLTQSPSTLSASVGDRVTITCRASQSISSWLAWYQQKPGKAPKLLIYKASSLESGVPSRFSGSGSGTEFTLTISSLQPDDFATYYCQQYNNYWTFGQGTKVEIK
Consider B2, for which the affinity, expressed as Kd, was 80.7 nM.

B3: GK-5A1 (antibody, V domains shown)
VH: QVQLVESGGGVVQPGRSLRLSCAASGFTFSSYGMYWVRQAPGKGLEWVAVIWNDGSNKYYADSVKGRFTISRDNSKNTLYLQMNSLRAEDTAVYYCAREGSGWYDYYYGMDVWGQGTTVTVSS
VL: EIVLTQSPSTLSASVGDRVTITCRASQSISSWLAWYQQKPGKAPKLLIYKASSLESGVPSRFSGSGSGTEFTLTISSLQPDDFATYYCQQYNSYWTFGQGTKVDIK
With B3, the affinity, expressed as Kd, was 61.3 nM.
